Data taken from patent EP4786492A1.
Residue numbers refer to the chain shown, from its start.

B1: Hab014VL1VH2-hFc (scFv, part only; not given: VL-VH linker and human IgG1 Fc, V domains shown, not shown: another chain or arm of the molecule; a dimerising Fc or GST; small tags and cut ends)
VL: DIQMTQSPSSLSASVGDRVTITCKASEDIYNRLAWYQQKPGKVPKLLISGATSLETGVPSRFSGSGSGTDFTLTISSLQPEDVATYYCQQYWSLPWTFGGGTKVEIK
VH: EVQLVQSGAEVKKPGASVKVSCKASGYTFTDYYMNWVRQAPGQRLEWMGDINPNHGDTGYNQKFTGRVTLTVDKSASTAYMELSSLRSEDTAVYYCARNFFYYGTTYGWYFDVWGQGTTVTVSS
B2: Hab014VL3VH1-hFc (scFv, part only; not given: VL-VH linker and human IgG1 Fc, V domains shown, not shown: another chain or arm of the molecule; a dimerising Fc or GST; small tags and cut ends)
VL: DIVMTQSPDSLAVSLGERATINCKASEDIYNRLAWYQQKPGQTPKLLISGATSLETGVPDRFSGSGSGKDFTLTISSLQAEDVAVYYCQQYWSLPWTFGGGTKVEIK
VH: B1 VH with L70I
B3: Hab014VL2VH1-hFc (scFv, part only; not given: scFv linker and human IgG1 Fc, V domains shown, not shown: another chain or arm of the molecule; a dimerising Fc or GST; small tags and cut ends)
VL: B1 VL with T69K
VH: B1 VH with L70I

The binders below were run against human delta-like ligand 3 (DLL3) on SHP77 cells (human) (UniProt Q9NYJ7) (assay: FACS on SHP77 cells).
Chain of human delta-like ligand 3 (DLL3) on SHP77 cells (human) (Q9NYJ7 27-618, stated change not applied): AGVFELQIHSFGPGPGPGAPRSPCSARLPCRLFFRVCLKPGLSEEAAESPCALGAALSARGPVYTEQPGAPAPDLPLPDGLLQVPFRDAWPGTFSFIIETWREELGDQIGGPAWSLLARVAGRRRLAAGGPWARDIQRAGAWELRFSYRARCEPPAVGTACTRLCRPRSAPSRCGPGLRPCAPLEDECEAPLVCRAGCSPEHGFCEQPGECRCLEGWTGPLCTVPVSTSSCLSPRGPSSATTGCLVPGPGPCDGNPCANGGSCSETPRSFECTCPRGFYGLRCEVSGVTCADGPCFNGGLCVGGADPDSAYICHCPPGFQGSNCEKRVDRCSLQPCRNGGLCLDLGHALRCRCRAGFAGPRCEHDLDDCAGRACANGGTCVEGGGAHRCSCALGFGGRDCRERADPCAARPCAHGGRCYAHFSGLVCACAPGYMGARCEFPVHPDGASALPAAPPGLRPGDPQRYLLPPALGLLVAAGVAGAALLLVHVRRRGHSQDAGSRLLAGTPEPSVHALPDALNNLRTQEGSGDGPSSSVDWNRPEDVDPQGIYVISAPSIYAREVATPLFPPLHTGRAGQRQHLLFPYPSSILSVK

| Binder | MFI at 0.00128 nM [MFI] | MFI at 0.0064 nM [MFI] | MFI at 0.032 nM [MFI] | MFI at 0.16 nM [MFI] | MFI at 0.8 nM [MFI] | MFI at 4 nM [MFI] | MFI at 20 nM [MFI] | MFI at 100 nM [MFI] |
| --- | --- | --- | --- | --- | --- | --- | --- | --- |
| B1 | 90 | 94 | 116 | 192 | 403 | 628 | 818 | 1120 |
| B2 | 91 | 96 | 112 | 179 | 348 | 567 | 770 | 1120 |
| B3 | 91 | 99 | 120 | 207 | 407 | 610 | 796 | 1110 |

The binders below were run against DLL3 endogenously expressed on NCI-H82 cells (UniProt Q9NYJ7) (assay: FACS on NCI-H82 cells; antibody 4 nM).
Chain of DLL3 endogenously expressed on NCI-H82 cells (Q9NYJ7 27-618): as the sequence (Q9NYJ7 27-618, stated change not applied) above

| Binder | MFI |
| --- | --- |
| B1 | 625 |
| B2 | 596 |
| B3 | 624 |

The binders below were run against DLL3 endogenously expressed on NCI-H82 cells (UniProt Q9NYJ7) (assay: FACS on NCI-H82 cells; antibody 20 nM).

| Binder | MFI |
| --- | --- |
| B1 | 784 |
| B2 | 732 |
| B3 | 754 |

The binders below were run against DLL3 endogenously expressed on NCI-H82 cells (UniProt Q9NYJ7) (assay: FACS on NCI-H82 cells; antibody 0.8 nM).

| Binder | MFI |
| --- | --- |
| B1 | 580 |
| B2 | 547 |
| B3 | 554 |

What follows are binders tested against DLL3 endogenously expressed on NCI-H82 cells (UniProt Q9NYJ7) (assay: FACS on NCI-H82 cells; antibody 100 nM).

| Binder | MFI |
| --- | --- |
| B1 | 1100 |
| B2 | 1030 |
| B3 | 1110 |

The binders below were run against DLL3 endogenously expressed on NCI-H82 cells (UniProt Q9NYJ7) (assay: FACS on NCI-H82 cells; antibody 0.16 nM).

| Binder | MFI |
| --- | --- |
| B1 | 419 |
| B2 | 356 |
| B3 | 428 |

Each binder was assayed against human DLL3 protein expressed on CHO-K1 recombinant cells (human DLL3 extracellular segment fused to EpCAM transmembrane and intracellular regions) (human) (UniProt Q9NYJ7) (assay: FACS, CHO-K1 hDLL3 cells, 4 nM antibody).
Chain of human DLL3 protein expressed on CHO-K1 recombinant cells (human DLL3 extracellular segment fused to EpCAM transmembrane and intracellular regions) (human) (Q9NYJ7 other isoform, or with tags, fused parts or gaps limits assumed): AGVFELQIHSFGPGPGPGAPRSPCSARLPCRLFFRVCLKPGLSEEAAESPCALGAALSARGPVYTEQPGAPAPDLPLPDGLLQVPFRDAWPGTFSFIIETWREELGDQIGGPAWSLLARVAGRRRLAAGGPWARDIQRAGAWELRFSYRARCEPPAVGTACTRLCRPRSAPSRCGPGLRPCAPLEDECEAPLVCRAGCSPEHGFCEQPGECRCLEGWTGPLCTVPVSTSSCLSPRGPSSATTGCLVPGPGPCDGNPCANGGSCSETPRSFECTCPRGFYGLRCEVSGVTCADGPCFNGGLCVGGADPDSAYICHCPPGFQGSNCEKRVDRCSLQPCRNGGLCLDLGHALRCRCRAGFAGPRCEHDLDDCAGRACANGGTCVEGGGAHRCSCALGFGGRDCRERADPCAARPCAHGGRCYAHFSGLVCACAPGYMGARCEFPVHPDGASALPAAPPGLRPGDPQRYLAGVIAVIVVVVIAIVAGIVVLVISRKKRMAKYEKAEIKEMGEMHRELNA

| Binder | MFI [MFI] |
| --- | --- |
| B1 | 14000 |
| B2 | 15300 |
| B3 | 15400 |

These binders were tested against mouse DLL3 on CHO-K1-mDLL3 cells (mouse) (UniProt O88516) (assay: FACS, CHO-K1-mDLL3 cells, 4 nM antibody).
Chain of mouse DLL3 on CHO-K1-mDLL3 cells (mouse) (O88516 other isoform, or with tags, fused parts or gaps limits assumed): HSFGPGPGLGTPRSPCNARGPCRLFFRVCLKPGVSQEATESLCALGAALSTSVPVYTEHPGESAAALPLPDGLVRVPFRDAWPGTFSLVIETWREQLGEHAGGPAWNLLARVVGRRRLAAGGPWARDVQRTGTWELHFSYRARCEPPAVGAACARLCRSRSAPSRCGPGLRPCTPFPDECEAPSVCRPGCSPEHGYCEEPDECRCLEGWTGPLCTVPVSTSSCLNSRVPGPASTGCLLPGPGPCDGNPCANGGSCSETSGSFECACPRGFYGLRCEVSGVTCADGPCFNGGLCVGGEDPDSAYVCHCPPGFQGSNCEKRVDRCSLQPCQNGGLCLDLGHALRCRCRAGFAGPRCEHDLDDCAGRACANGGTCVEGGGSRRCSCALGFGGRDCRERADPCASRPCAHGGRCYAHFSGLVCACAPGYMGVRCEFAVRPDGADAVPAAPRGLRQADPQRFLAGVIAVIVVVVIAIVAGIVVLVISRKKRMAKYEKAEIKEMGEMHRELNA

| Binder | MFI [MFI] |
| --- | --- |
| B1 | 311 |
| B2 | 296 |
| B3 | 308 |

These binders were tested against DLL3 endogenously expressed on NCI-H82 cells (UniProt Q9NYJ7) (assay: FACS on NCI-H82 cells; antibody 0.032 nM).

| Binder | MFI |
| --- | --- |
| B1 | 204 |
| B2 | 178 |
| B3 | 217 |

The binders below were run against human DLL3 protein expressed on CHO-K1 recombinant cells (human DLL3 extracellular segment fused to EpCAM transmembrane and intracellular regions) (human) (UniProt Q9NYJ7) (assay: FACS, CHO-K1 hDLL3 cells, 20 nM antibody).

| Binder | MFI [MFI] |
| --- | --- |
| B1 | 15100 |
| B2 | 15700 |
| B3 | 16100 |

The binders below were run against mouse DLL3 on CHO-K1-mDLL3 cells (mouse) (UniProt O88516) (assay: FACS, CHO-K1-mDLL3 cells, 20 nM antibody).

| Binder | MFI [MFI] |
| --- | --- |
| B1 | 355 |
| B2 | 332 |
| B3 | 355 |

These binders were tested against DLL3 endogenously expressed on NCI-H82 cells (UniProt Q9NYJ7) (assay: FACS on NCI-H82 cells; antibody 0.0064 nM).

| Binder | MFI |
| --- | --- |
| B1 | 130 |
| B2 | 125 |
| B3 | 142 |

The binders below were run against human DLL3 protein expressed on CHO-K1 recombinant cells (human DLL3 extracellular segment fused to EpCAM transmembrane and intracellular regions) (human) (UniProt Q9NYJ7) (assay: FACS, CHO-K1 hDLL3 cells, 0.8 nM antibody).

| Binder | MFI [MFI] |
| --- | --- |
| B1 | 9190 |
| B2 | 7320 |
| B3 | 8420 |

Each binder was assayed against human DLL3 protein expressed on CHO-K1 recombinant cells (human DLL3 extracellular segment fused to EpCAM transmembrane and intracellular regions) (human) (UniProt Q9NYJ7) (assay: FACS, CHO-K1 hDLL3 cells, 100 nM antibody).

| Binder | MFI [MFI] |
| --- | --- |
| B1 | 16000 |
| B2 | 16500 |
| B3 | 16400 |

What follows are binders tested against mouse DLL3 on CHO-K1-mDLL3 cells (mouse) (UniProt O88516) (assay: FACS, CHO-K1-mDLL3 cells, 0.8 nM antibody).

| Binder | MFI [MFI] |
| --- | --- |
| B1 | 268 |
| B2 | 253 |
| B3 | 272 |

Each binder was assayed against mouse DLL3 on CHO-K1-mDLL3 cells (mouse) (UniProt O88516) (assay: FACS, CHO-K1-mDLL3 cells, 100 nM antibody).

| Binder | MFI [MFI] |
| --- | --- |
| B1 | 389 |
| B2 | 382 |
| B3 | 374 |

These binders were tested against DLL3 endogenously expressed on NCI-H82 cells (UniProt Q9NYJ7) (assay: FACS on NCI-H82 cells; antibody 0.00128 nM).

| Binder | MFI |
| --- | --- |
| B1 | 110 |
| B2 | 108 |
| B3 | 113 |

The binders below were run against human DLL3 protein expressed on CHO-K1 recombinant cells (human DLL3 extracellular segment fused to EpCAM transmembrane and intracellular regions) (human) (UniProt Q9NYJ7) (assay: FACS, CHO-K1 hDLL3 cells, 0.16 nM antibody).

| Binder | MFI [MFI] |
| --- | --- |
| B1 | 2130 |
| B2 | 2060 |
| B3 | 2380 |

What follows are binders tested against mouse DLL3 on CHO-K1-mDLL3 cells (mouse) (UniProt O88516) (assay: FACS, CHO-K1-mDLL3 cells, 0.16 nM antibody).

| Binder | MFI [MFI] |
| --- | --- |
| B1 | 208 |
| B2 | 192 |
| B3 | 204 |

The binders below were run against human DLL3 protein expressed on CHO-K1 recombinant cells (human DLL3 extracellular segment fused to EpCAM transmembrane and intracellular regions) (human) (UniProt Q9NYJ7) (assay: FACS, CHO-K1 hDLL3 cells, 0.032 nM antibody).

| Binder | MFI [MFI] |
| --- | --- |
| B1 | 698 |
| B2 | 555 |
| B3 | 705 |

Each binder was assayed against monkey DLL3 on CHO-K1-cyno DLL3 cells (cynomolgus monkey) (assay: FACS, CHO-K1-cyno DLL3 cells, 4 nM antibody).
Chain of monkey DLL3 on CHO-K1-cyno DLL3 cells (cynomolgus monkey) (chain, as listed by the source limits assumed): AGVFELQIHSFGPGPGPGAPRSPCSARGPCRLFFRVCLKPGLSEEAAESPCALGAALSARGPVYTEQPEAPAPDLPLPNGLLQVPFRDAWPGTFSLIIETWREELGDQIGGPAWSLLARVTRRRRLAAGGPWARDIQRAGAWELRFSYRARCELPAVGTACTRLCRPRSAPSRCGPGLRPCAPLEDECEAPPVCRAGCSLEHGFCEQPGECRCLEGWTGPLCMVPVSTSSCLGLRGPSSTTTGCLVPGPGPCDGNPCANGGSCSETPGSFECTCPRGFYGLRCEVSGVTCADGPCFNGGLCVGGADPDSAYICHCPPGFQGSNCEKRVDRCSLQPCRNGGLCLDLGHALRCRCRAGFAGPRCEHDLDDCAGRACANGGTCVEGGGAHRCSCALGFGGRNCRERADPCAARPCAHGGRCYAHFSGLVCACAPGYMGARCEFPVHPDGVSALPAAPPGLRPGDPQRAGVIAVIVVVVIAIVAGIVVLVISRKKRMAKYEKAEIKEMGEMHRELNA

| Binder | MFI [MFI] |
| --- | --- |
| B1 | 25900 |
| B2 | 27700 |
| B3 | 25300 |

The binders below were run against mouse DLL3 on CHO-K1-mDLL3 cells (mouse) (UniProt O88516) (assay: FACS, CHO-K1-mDLL3 cells, 0.032 nM antibody).

| Binder | MFI [MFI] |
| --- | --- |
| B1 | 148 |
| B2 | 137 |
| B3 | 152 |

These binders were tested against human DLL3 protein expressed on CHO-K1 recombinant cells (human DLL3 extracellular segment fused to EpCAM transmembrane and intracellular regions) (human) (UniProt Q9NYJ7) (assay: FACS, CHO-K1 hDLL3 cells, 0.0064 nM antibody).

| Binder | MFI [MFI] |
| --- | --- |
| B1 | 306 |
| B2 | 299 |
| B3 | 322 |

The binders below were run against monkey DLL3 on CHO-K1-cyno DLL3 cells (cynomolgus monkey) (assay: FACS, CHO-K1-cyno DLL3 cells, 20 nM antibody).

| Binder | MFI [MFI] |
| --- | --- |
| B1 | 31500 |
| B2 | 32500 |
| B3 | 33000 |

What follows are binders tested against mouse DLL3 on CHO-K1-mDLL3 cells (mouse) (UniProt O88516) (assay: FACS, CHO-K1-mDLL3 cells, 0.0064 nM antibody).

| Binder | MFI [MFI] |
| --- | --- |
| B1 | 122 |
| B2 | 110 |
| B3 | 118 |

The binders below were run against human DLL3 protein expressed on CHO-K1 recombinant cells (human DLL3 extracellular segment fused to EpCAM transmembrane and intracellular regions) (human) (UniProt Q9NYJ7) (assay: FACS, CHO-K1 hDLL3 cells, 0.00128 nM antibody).

| Binder | MFI [MFI] |
| --- | --- |
| B1 | 221 |
| B2 | 207 |
| B3 | 231 |

These binders were tested against monkey DLL3 on CHO-K1-cyno DLL3 cells (cynomolgus monkey) (assay: FACS, CHO-K1-cyno DLL3 cells, 0.8 nM antibody).

| Binder | MFI [MFI] |
| --- | --- |
| B1 | 9960 |
| B2 | 8680 |
| B3 | 10100 |

These binders were tested against monkey DLL3 on CHO-K1-cyno DLL3 cells (cynomolgus monkey) (assay: FACS, CHO-K1-cyno DLL3 cells, 100 nM antibody).

| Binder | MFI [MFI] |
| --- | --- |
| B1 | 32800 |
| B2 | 33900 |
| B3 | 33000 |

What follows are binders tested against mouse DLL3 on CHO-K1-mDLL3 cells (mouse) (UniProt O88516) (assay: FACS, CHO-K1-mDLL3 cells, 0.00128 nM antibody).

| Binder | MFI [MFI] |
| --- | --- |
| B1 | 109 |
| B2 | 103 |
| B3 | 109 |

Each binder was assayed against monkey DLL3 on CHO-K1-cyno DLL3 cells (cynomolgus monkey) (assay: FACS, CHO-K1-cyno DLL3 cells, 0.16 nM antibody).

| Binder | MFI [MFI] |
| --- | --- |
| B1 | 2190 |
| B2 | 1730 |
| B3 | 1670 |

The binders below were run against monkey DLL3 on CHO-K1-cyno DLL3 cells (cynomolgus monkey) (assay: FACS, CHO-K1-cyno DLL3 cells, 0.032 nM antibody).

| Binder | MFI [MFI] |
| --- | --- |
| B1 | 692 |
| B2 | 565 |
| B3 | 661 |

Each binder was assayed against monkey DLL3 on CHO-K1-cyno DLL3 cells (cynomolgus monkey) (assay: FACS, CHO-K1-cyno DLL3 cells, 0.0064 nM antibody).

| Binder | MFI [MFI] |
| --- | --- |
| B1 | 306 |
| B2 | 245 |
| B3 | 287 |

Each binder was assayed against monkey DLL3 on CHO-K1-cyno DLL3 cells (cynomolgus monkey) (assay: FACS, CHO-K1-cyno DLL3 cells, 0.00128 nM antibody).

| Binder | MFI [MFI] |
| --- | --- |
| B1 | 215 |
| B2 | 180 |
| B3 | 200 |

The binders below were run against human DLL1 protein (Acro, Cat. No. DL1-H52H8) (human) (UniProt O00548) (assay: ELISA, coated hDLL1; maximum over 0.1, 1, 10, 100 nM antibody).
Chain of human DLL1 protein (Acro, Cat. No. DL1-H52H8) (human) (O00548 18-540 limits assumed): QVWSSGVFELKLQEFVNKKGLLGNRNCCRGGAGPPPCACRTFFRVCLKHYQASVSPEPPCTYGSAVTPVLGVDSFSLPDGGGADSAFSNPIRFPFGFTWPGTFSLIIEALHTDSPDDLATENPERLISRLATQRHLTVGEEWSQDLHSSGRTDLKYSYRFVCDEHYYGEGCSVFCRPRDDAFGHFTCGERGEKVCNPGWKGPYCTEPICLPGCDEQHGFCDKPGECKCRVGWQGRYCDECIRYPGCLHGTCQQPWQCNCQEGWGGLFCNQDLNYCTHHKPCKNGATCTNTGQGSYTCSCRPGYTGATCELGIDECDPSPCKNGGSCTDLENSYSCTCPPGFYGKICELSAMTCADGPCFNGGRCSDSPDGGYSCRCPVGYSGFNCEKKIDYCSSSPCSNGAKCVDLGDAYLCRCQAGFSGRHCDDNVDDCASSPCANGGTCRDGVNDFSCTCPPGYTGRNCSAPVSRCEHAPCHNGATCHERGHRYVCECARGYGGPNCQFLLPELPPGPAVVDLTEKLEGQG

| Binder | Emax of OD450 nm binding value [OD450 nm] |
| --- | --- |
| B1 | 0.1 |
| B2 | 0.08 |
| B3 | 0.17 |

What follows are binders tested against human DLL4 protein (Acro, Cat. No. DL4-H5227) (human) (UniProt Q9NR61) (assay: ELISA, coated hDLL4; maximum over 0.1, 1, 10, 100 nM antibody).
Chain of human DLL4 protein (Acro, Cat. No. DL4-H5227) (human) (Q9NR61 27-524 limits assumed): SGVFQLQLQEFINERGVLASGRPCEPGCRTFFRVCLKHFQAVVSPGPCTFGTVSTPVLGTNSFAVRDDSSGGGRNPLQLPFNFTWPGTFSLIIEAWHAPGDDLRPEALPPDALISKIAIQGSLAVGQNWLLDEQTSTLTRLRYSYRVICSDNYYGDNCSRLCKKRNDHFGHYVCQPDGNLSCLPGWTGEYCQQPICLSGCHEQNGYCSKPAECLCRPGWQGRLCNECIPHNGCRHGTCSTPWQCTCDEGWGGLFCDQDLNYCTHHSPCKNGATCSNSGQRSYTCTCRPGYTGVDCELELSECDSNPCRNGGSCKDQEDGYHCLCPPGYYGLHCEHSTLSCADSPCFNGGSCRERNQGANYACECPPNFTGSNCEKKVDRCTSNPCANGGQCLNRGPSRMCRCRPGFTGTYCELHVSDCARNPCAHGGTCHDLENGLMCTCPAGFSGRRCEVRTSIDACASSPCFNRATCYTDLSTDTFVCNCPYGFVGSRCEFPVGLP

| Binder | Emax of OD450 nm binding value [OD450 nm] |
| --- | --- |
| B1 | 0.13 |
| B2 | 0.1 |
| B3 | 0.25 |

The binders below were run against human DLL3 protein (extracellular segment, His tag) (human) (UniProt Q9NYJ7) (assay: SPR (Biacore 8K), antibody captured on Protein A chip, DLL3 antigen in solution, 1:1 Langmuir fit).
Chain of human DLL3 protein (extracellular segment, His tag) (human) (Q9NYJ7 27-492): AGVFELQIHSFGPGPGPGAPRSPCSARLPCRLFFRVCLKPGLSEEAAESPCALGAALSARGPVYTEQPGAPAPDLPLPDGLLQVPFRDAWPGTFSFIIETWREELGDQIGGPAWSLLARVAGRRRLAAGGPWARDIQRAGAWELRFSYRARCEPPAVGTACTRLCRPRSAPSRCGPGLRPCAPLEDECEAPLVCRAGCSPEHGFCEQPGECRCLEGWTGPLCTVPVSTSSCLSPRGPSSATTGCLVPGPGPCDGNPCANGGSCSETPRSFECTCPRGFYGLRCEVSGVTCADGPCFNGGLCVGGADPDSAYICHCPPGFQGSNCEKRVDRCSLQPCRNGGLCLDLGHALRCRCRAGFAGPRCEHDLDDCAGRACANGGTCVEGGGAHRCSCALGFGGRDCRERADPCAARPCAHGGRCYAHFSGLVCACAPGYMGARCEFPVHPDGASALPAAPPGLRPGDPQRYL

| Binder | Kd [nM] | koff [s⁻¹] | kon [M⁻¹ s⁻¹] |
| --- | --- | --- | --- |
| B1 | 0.0772 | 7.84e-05 | 1.02e+06 |
| B2 | 0.0946 | 0.000129 | 1.36e+06 |
| B3 | 0.111 | 0.000135 | 1.21e+06 |
